Assay results as given in paper PMC4427203 (2015).

Target: Hsp90 600-709 (Saccharomyces cerevisiae (strain ATCC …, UniProt P02829))
Assay: Kd quoted from earlier work (method not stated here)

Kd: 13.3 µM
B1: AIP 172-315 (protein)
chain: DEEKAKAVPLIHQEGNRLYREGHVKEAAAKYYDAIACLKNLQMKEQPGSPEWIQLDQQITPLLLNYCQCKLVVEEYYEVLDHCSSILNKYDDNVKAYFKRGKAHAAVWNAQEAQADFAKVLELDPALAPVVSRELRALEARIRQ
